# Test results published in patent publication US5739291, “Glutamate receptor antibodies” (The Salk Institute For Biological Studies, dated 1998).
# B1: glutamate receptor subunit GluR1 (receptor)
# chain: ANFPNNIQIGGLFPNQQSQEHAAFRFALSQLTEPPKLLPQIDIVNISDTFEMTYRFCSQFSKGVYAIFGFYERRTVNMLTSFCGALHVCFITPSFPVDTSNQFVLQLRPELQEALISIIDHYKWQTFVYIYDADRGLSVLQRVLDTAAEKNWQVTAVNILTTTEEGYRMLFQDLEKKKERLVVVDCESERLNAILGQIVKLEKNGIGYHYILANLGFMDIDLNKFKESGRNVTGFQLVNYTDTIPARIMQQWRTSDSRDHTRVDWKRPKYTSALTYDGVKVMAEAFQSLRRQRIDISRRGNAGDCLANPAVPWGQGIDIQRALQQVRFEGLTGNVQFNEKGRRTNYTLHVIEMKHDGIRKIGYWNEDDKFVPAATDAQAGGDNSSVQNRTYIVTTILEDPYVMLKKNANQFEGNDRYEGYCVELAAEIAKHVGYSYRLEIVSDGKYGARDPDTKAWNGMVGELVYGRADVAVAPLTITLVREEVIDFSKPFMSLGISIMIKKPQKSKPGVFSFLDPLAYEIWMCIVFAYIGVSVVLFLVSRFSPYEWHSEEFEEGRDQTTSDQSNEFGIFNSLWFSLGAFMQQGCDISPRSLSGRIVGGVWWFFTLIIISSYTANLAAFLTVERMVSPIESAEDLAKQTEIAYGTLEAGSTKEFFRRSKIAVFEKMWTYMKSAEPSVFVRTTEEGMIRVRKSKGKYAYLLESTMNEYIEQRKPCDTMKVGGNLDSKGYGIATPKGSALRNPVNLAVLKLNEQGLLDKLKNKWWYDKGECGTGGGDSKDKTSALSLSNVAGVFYILIGGLGLAMLVALIEFCYKSRSESKRMKGFCLIPQQSINEAIRTSTLPRNSGAGASGGGGSGENGRVVSQDFPKSMQSIPCMSHSSGMPLGATGL
# Target: glutamate receptor subunit GluR2 (rat)
# Sequence (chain, as listed by the source limits assumed): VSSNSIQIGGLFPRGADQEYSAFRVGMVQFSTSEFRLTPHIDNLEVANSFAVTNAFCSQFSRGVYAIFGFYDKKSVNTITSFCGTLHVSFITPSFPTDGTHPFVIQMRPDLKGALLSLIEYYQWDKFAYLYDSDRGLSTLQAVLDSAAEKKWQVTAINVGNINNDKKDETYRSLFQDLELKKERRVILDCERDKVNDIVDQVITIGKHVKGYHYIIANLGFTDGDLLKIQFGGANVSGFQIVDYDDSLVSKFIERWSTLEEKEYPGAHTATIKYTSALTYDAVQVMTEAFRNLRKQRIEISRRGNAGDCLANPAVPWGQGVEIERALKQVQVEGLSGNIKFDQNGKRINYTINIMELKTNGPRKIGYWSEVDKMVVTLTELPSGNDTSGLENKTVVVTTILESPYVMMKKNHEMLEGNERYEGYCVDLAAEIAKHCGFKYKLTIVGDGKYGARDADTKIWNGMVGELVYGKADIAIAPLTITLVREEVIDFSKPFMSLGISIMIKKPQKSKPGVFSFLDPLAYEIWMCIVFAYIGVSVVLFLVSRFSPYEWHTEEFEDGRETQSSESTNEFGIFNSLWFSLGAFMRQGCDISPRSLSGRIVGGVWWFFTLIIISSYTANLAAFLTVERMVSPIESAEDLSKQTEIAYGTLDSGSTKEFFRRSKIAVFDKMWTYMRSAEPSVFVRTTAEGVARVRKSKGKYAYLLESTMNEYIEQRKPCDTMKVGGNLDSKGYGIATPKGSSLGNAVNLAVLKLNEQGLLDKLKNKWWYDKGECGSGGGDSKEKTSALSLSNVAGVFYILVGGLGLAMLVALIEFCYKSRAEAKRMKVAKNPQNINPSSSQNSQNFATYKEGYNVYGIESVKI
# Experiment: cell-based or functional assay
binder,measurement,value
B1,"KA-evoked currents in Xenopus oocytes on co-expression, against the summed responses of singly injected oocytes",~4 fold
